Reference: paper PMC10521975, “Species-specific cleavage of cGAS by picornavirus protease 3C disrupts mitochondria DNA-mediated immune sensing”

Molecular target: T1, pcGAS full-length (pcGASFL) (Sus scrofa (porcine), UniProt I3LM39 1-495)
T1 sequence: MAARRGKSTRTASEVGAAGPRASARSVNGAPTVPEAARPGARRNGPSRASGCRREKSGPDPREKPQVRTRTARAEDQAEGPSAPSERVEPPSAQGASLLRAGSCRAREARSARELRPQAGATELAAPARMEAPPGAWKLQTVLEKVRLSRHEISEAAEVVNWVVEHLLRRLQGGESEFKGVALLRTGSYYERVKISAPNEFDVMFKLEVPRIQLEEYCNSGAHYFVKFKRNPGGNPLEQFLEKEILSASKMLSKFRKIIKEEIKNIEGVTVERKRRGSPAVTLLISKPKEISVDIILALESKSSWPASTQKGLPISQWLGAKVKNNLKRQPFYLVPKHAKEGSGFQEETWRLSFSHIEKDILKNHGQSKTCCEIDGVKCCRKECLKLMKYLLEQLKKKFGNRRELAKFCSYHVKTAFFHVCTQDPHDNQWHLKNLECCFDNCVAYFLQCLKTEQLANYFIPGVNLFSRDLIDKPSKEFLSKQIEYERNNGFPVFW
Assay: EMSA; pcGAS dose series; EMSA: 50 uM ISD45, pcGAS at DNA:protein 1:1 to 1:32, RT 1 h, 1% agarose in 40 mM Tris-HCl pH 9.2; pull-down: pcGAS + 3C in 50 mM HEPES pH 7.5, 3 mM EDTA, 150 mM NaCl, 0.005% Tween-20, 10 mM DTT at 37 C 2 h, then 4 h with HSV60 streptavidin beads
Details: protein: recombinant; tags: N-term His6-SUMO-FLAG, C-term HA (SUMO kept on full-length protein); blunt

B1: ISD45 (dsDNA)
DNA 1: TACAGATCTACTAGTGATCTATGACTGATCTGTACATGATCTACA
DNA 2: TGTAGATCATGTACAGATCAGTCATAGATCACTAGTAGATCTGTA
Q: Does B1 bind?
A: binds
